For 16 molecules, Kd results are on record in PMC6747400, “Mismatch Recognition by Saccharomyces cerevisiae Msh2-Msh6: Role of Structure and Dynamics”.

The target in data set [1] is T1, Msh2;Msh6 (Saccharomyces cerevisiae;Saccharomyces …, UniProt P25847;Q03834 1-964;1-1242, |). The data set is described as follows: fluorescence anisotropy; Fluorescence/FRET: 10 mM sodium phosphate pH 7.5, 100 mM NaCl, 5 mM MgCl2, 10 C (10 nM DNA for anisotropy); EMSA: 20 mM Tris-Cl pH 7.5, 100 mM NaCl, 5 mM MgCl2, 2% ficoll, 4 C, 10 nM DNA. The note with it: protein: recombinant;recombinant, tags: ;, copies: 1;1, blunt. (In general: Fluorescence polarisation rises when a labelled molecule tumbles more slowly, as on binding a larger partner.)
T1 sequence (P25847 whole entry, chain 1 of 2): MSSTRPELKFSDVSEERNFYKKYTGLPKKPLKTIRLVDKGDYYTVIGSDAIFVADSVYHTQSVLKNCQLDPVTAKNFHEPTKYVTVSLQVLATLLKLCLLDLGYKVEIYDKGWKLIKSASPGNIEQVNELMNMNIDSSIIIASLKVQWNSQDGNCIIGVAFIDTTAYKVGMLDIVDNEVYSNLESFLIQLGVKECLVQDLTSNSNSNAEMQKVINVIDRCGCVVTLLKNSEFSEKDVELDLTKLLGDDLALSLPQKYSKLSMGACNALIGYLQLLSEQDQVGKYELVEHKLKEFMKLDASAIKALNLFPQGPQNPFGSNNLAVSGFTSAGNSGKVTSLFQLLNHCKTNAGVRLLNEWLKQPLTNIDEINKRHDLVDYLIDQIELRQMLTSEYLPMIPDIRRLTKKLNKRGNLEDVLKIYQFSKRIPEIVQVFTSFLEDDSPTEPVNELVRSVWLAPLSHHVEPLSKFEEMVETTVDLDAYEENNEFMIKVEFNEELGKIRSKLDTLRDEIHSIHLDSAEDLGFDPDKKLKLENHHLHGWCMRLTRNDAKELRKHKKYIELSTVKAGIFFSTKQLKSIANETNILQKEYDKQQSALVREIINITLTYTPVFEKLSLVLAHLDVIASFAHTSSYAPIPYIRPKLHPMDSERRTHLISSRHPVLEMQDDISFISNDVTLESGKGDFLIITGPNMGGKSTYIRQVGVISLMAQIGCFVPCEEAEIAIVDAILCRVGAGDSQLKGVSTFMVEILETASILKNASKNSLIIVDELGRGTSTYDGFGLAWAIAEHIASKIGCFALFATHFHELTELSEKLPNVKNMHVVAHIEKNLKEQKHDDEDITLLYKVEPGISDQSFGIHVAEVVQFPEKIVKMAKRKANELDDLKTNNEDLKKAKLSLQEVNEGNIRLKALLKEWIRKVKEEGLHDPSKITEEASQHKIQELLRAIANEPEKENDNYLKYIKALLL
T1 sequence (Q03834 whole entry, chain 2 of 2): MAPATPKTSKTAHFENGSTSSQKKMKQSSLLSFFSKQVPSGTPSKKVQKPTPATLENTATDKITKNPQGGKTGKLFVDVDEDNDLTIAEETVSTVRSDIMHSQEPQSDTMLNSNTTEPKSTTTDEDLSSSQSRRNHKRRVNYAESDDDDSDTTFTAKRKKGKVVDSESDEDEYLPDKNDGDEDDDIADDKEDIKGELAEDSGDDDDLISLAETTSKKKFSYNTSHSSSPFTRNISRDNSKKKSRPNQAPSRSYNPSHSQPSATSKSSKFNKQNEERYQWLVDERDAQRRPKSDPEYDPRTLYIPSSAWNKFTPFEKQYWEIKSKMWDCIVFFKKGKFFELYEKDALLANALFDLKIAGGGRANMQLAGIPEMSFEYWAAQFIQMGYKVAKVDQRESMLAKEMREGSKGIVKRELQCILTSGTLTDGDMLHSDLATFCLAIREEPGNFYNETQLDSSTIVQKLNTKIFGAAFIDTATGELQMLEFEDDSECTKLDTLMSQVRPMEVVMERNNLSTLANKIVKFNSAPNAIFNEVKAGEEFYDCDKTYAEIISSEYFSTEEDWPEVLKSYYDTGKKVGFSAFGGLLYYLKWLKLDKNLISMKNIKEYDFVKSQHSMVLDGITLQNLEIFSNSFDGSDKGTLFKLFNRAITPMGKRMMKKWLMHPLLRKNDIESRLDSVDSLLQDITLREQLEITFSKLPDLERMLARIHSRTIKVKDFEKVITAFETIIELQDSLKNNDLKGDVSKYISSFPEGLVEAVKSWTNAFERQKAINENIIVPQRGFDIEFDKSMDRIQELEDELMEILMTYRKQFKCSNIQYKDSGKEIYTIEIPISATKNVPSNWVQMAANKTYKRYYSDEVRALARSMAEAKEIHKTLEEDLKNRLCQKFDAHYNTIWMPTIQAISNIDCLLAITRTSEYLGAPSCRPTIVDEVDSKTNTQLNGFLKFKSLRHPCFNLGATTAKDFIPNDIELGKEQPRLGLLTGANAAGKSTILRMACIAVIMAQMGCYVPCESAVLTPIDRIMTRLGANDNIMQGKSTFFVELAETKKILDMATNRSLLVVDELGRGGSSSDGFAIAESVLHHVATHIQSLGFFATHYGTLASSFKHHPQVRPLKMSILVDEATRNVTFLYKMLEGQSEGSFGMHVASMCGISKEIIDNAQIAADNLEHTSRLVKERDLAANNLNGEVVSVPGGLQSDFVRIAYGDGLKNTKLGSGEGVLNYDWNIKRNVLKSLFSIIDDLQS

In data set [2] the target is T1, Msh2;Msh6. The data set is described as follows: fluorescence intensity; Fluorescence/FRET: 10 mM sodium phosphate pH 7.5, 100 mM NaCl, 5 mM MgCl2, 10 C (10 nM DNA for anisotropy); EMSA: 20 mM Tris-Cl pH 7.5, 100 mM NaCl, 5 mM MgCl2, 2% ficoll, 4 C, 10 nM DNA. The note with it: protein: recombinant;recombinant, tags: ;, copies: 1;1, label: 6-MI internal, blunt.
Data set [3] concerns the target T1, Msh2;Msh6. Kind of data set: fluorescence anisotropy; Table 1 prints this value in the intensity column of +T_6-MI; Fluorescence/FRET: 10 mM sodium phosphate pH 7.5, 100 mM NaCl, 5 mM MgCl2, 10 C (10 nM DNA for anisotropy); EMSA: 20 mM Tris-Cl pH 7.5, 100 mM NaCl, 5 mM MgCl2, 2% ficoll, 4 C, 10 nM DNA. The conditions noted are these: protein: recombinant;recombinant; tags: ;; copies: 1;1; label: 5' Alexa Fluor 594 on strand 1; blunt, unpaired T14 in strand 1.

Data set [4] has as its target T1, Msh2;Msh6. Kind of data set: fluorescence anisotropy; text gives error 6.9; Fluorescence/FRET: 10 mM sodium phosphate pH 7.5, 100 mM NaCl, 5 mM MgCl2, 10 C (10 nM DNA for anisotropy); EMSA: 20 mM Tris-Cl pH 7.5, 100 mM NaCl, 5 mM MgCl2, 2% ficoll, 4 C, 10 nM DNA. The conditions noted are these: protein: recombinant;recombinant; tags: ;; copies: 1;1; label: 6-MI internal; blunt, 6-MI:A mismatch.

Data set [5] addresses T1, Msh2;Msh6. The data set is described as follows: fluorescence anisotropy; Figure S2 legend gives 92.1 ± 13.9; Fluorescence/FRET: 10 mM sodium phosphate pH 7.5, 100 mM NaCl, 5 mM MgCl2, 10 C (10 nM DNA for anisotropy); EMSA: 20 mM Tris-Cl pH 7.5, 100 mM NaCl, 5 mM MgCl2, 2% ficoll, 4 C, 10 nM DNA. The note with it: protein: recombinant;recombinant; tags: ;; copies: 1;1; label: 5' Alexa Fluor 647 on strand 1; blunt homoduplex.

Broadly, the Kd is a measure of binding affinity in units of concentration.

B1: 6-MI:C (dsDNA)
DNA 1: TATGCAGTCACTATGAATCAACTACTTAGATGGT
DNA 2: ACCATCTAAGTAGTTGATTCATAGTGACTGCATA
modifications: 6-MI replaces G15 of strand 1 (F, written G)
As to B1, the Kd in the data set with Msh2;Msh6 [1] (label: 6-MI internal, 34 bp homoduplex) came to 122 ± 12.1 nM.

B2: T:T_6-MI (dsDNA)
DNA 1: TATGCAGTCACTATGAATCAACTACTTAGATGGT
DNA 2: ACCATCTAAGTAGTTGATTCTTAGTGACTGCATA
modifications: 6-MI replaces G15 of strand 1 (F, written G)
Take B2: the Kd with Msh2;Msh6 [1] (label: 6-MI internal, T14:T mismatch) was found to be 77.5 ± 20 nM.

B3: G:G end-labeled (dsDNA)
DNA 1: TATGCAGTCACTATGAATCAACTACTTAGATGGT
DNA 2: ACCATCTAAGTAGTTGATTGATAGTGACTGCATA
modifications: 5' amino C6
In the case of B3, the dissociation constant (Kd) in the data set with Msh2;Msh6 [1] (label: Alexa Fluor 594 or 647, G15:G mismatch) worked out at 15.6 ± 3.4 nM.

B4: G:T_AF594 (dsDNA)
DNA 1: TATGCAGTCACTATGAATCAACTACTTAGATGGT
DNA 2: ACCATCTAAGTAGTTGATTTATAGTGACTGCATA
modifications: 5' amino C6 on strand 1
As to B4, in the data set with Msh2;Msh6 [1] (label: 5' Alexa Fluor 594 on strand 1, G15:T mismatch), the Kd was found to be 13.3 ± 3.9 nM.

B5: T:G_6-MI (dsDNA)
DNA 1: TATGCAGTCACTATGAATCAACTACTTAGATGGT
DNA 2: ACCATCTAAGTAGTTGATTCGTAGTGACTGCATA
modifications: 6-MI replaces G15 of strand 1 (F, written G)
Consider B5, for which the Kd in the data set with Msh2;Msh6 [1] (label: 6-MI internal, T14:G mismatch) was determined as 25.9 ± 1.2 nM.

B6: +T_6-MI (dsDNA)
DNA 1: TATGCAGTCACTATGAATCAACTACTTAGATGGT
DNA 2: ACCATCTAAGTAGTTGATTCTAGTGACTGCATA
modifications: 6-MI replaces G15 of strand 1 (F, written G)
On to B6, for which the equilibrium dissociation constant (Kd) with Msh2;Msh6 [1] (label: 6-MI internal, unpaired T14 in strand 1 (34/33 nt)) is 16 ± 2.9 nM.

B7: 6-MI_A:G (dsDNA)
DNA 1: TATGCAGTCACTATGAATCAACTACTTAGATGGT
DNA 2: ACCATCTAAGTAGTTGATGCATAGTGACTGCATA
modifications: 6-MI replaces G15 of strand 1 (F, written G)
Regarding B7, the Kd with Msh2;Msh6 [2] (A16:G mismatch) was 11.8 ± 2.8 nM; with Msh2;Msh6 [1] (label: 6-MI internal, A16:G mismatch), 9 ± 2.8 nM.

B8: +T_AF594 (dsDNA)
DNA 1: TATGCAGTCACTATGAATCAACTACTTAGATGGT
DNA 2: ACCATCTAAGTAGTTGATTCTAGTGACTGCATA
modifications: 5' amino C6 on strand 1
Take B8: the Kd in the data set with Msh2;Msh6 [3] was 18.1 ± 2.6 nM.

B9: 6-MI:A (dsDNA)
DNA 1: TATGCAGTCACTATGAATCAACTACTTAGATGGT
DNA 2: ACCATCTAAGTAGTTGATTAATAGTGACTGCATA
modifications: 6-MI replaces G15 of strand 1 (F, written G)
With B9, in the data set with Msh2;Msh6 [4], the Kd stood at 25.8 ± 12.3 nM.

B10: 6-MI_A:A (dsDNA)
DNA 1: TATGCAGTCACTATGAATCAACTACTTAGATGGT
DNA 2: ACCATCTAAGTAGTTGATACATAGTGACTGCATA
modifications: 6-MI replaces G15 of strand 1 (F, written G)
Consider B10, for which the dissociation constant Kd with Msh2;Msh6 [2] (A16:A mismatch) stood at 19.1 ± 3.5 nM; with Msh2;Msh6 [1] (label: 6-MI internal, A16:A mismatch), 7.9 ± 2 nM.

B11: A:A_6-MI (dsDNA)
DNA 1: TATGCAGTCACTATGAATCAACTACATAGATGGT
DNA 2: ACCATCTAAGTAGTTGATTCATAGTGACTGCATA
modifications: 6-MI replaces G10 of strand 2 (F, written G)
Take B11: the dissociation constant (Kd) with Msh2;Msh6 [2] (A26:A mismatch) was found to be 10.4 ± 2.4 nM; with Msh2;Msh6 [1] (label: 6-MI internal, A26:A mismatch), 11.3 ± 3.1 nM.

B12: 6-MI:G (dsDNA)
DNA 1: TATGCAGTCACTATGAATCAACTACTTAGATGGT
DNA 2: ACCATCTAAGTAGTTGATTGATAGTGACTGCATA
modifications: 6-MI replaces G15 of strand 1 (F, written G)
B12: in the data set with Msh2;Msh6 [1] (label: 6-MI internal, 6-MI:G mismatch), the Kd is 10.4 ± 5.8 nM.

B13: T:C_6-MI (dsDNA)
DNA 1: TATGCAGTCACTATGAATCAACTACTTAGATGGT
DNA 2: ACCATCTAAGTAGTTGATTCCTAGTGACTGCATA
modifications: 6-MI replaces G15 of strand 1 (F, written G)
Take B13: the Kd with Msh2;Msh6 [1] (label: 6-MI internal, T14:C mismatch) amounted to 113 ± 18.7 nM.

B14: 6-MI:T (dsDNA)
DNA 1: TATGCAGTCACTATGAATCAACTACTTAGATGGT
DNA 2: ACCATCTAAGTAGTTGATTTATAGTGACTGCATA
modifications: 6-MI replaces G15 of strand 1 (F, written G)
Regarding B14, the Kd in the data set with Msh2;Msh6 [1] (label: 6-MI internal, 6-MI:T mismatch) was 13.7 ± 3.4 nM.

B15: G:C_AF647 (dsDNA)
DNA 1: TATGCAGTCACTATGAATCAACTACTTAGATGGT
DNA 2: ACCATCTAAGTAGTTGATTCATAGTGACTGCATA
modifications: 5' amino C6 on strand 1
Turning to B15, in the data set with Msh2;Msh6 [5], the Kd worked out at 106 ± 13.9 nM.

B16: 6-MI_A:C (dsDNA)
DNA 1: TATGCAGTCACTATGAATCAACTACTTAGATGGT
DNA 2: ACCATCTAAGTAGTTGATCCATAGTGACTGCATA
modifications: 6-MI replaces G15 of strand 1 (F, written G)
Consider B16, for which the Kd with Msh2;Msh6 [2] (A16:C mismatch) was 17.1 ± 4.3 nM; in the data set with Msh2;Msh6 [1] (label: 6-MI internal, A16:C mismatch), 13.3 ± 3.6 nM.
